Laboratory results published in patent US20220064329A1 (Novo Nordisk, published 2022).

Columns and labels:
Assay in all cases: SPR, ratio of KD to KD of WT
FVII(a) variant I186A = target: T1, FVII(a) variant I186A (human, UniProt P08709 61-466)
T1 construct: hFVII alanine variant in cell culture supernatant
T1 sequence: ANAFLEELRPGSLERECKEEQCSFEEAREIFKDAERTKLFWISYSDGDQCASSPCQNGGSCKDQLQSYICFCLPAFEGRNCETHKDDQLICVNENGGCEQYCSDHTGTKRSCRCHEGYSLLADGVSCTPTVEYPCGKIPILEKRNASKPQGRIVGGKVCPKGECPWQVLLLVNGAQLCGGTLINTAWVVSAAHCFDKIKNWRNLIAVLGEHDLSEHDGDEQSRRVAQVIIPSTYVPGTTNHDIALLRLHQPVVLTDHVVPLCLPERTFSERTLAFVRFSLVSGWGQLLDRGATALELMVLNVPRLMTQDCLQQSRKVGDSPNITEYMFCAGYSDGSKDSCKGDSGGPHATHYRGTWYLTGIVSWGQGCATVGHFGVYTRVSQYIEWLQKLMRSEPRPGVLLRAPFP
Experimental: (§1) The running buffer was prepared by diluting 10-fold the 10×HBS-P buffer (supplied by GE Healthcare) and supplemented with 1 mg/ml BSA and 5 mM CaCl2 to give 10 mM HEPES, 150 mM NaCl, 0.05% v/v Polysorbate 20, pH 7.4, 5 mM CaCl2, 1 mg/ml bovine serum albumin (BSA). […] Regeneration of the chip was achieved using 10 mM HEPES, 150 mM NaCl, 20 mM EDTA, 0.05 v/v Polysorbate 20, pH 7.4. Binding data were analysed according to a 1:1 Kinetic model and steady state analysis using BiaEvaluation 4.1 supplied by the manufacturer (Biacore AB, Uppsala, Sweden). Wherever possible, ka, kd and KD values from 1:1 kinetic fitting model are reported. […] An amino acid residue is considered a hot-spot residue if substitution of that amino acid residue with alanine results in an affinity reduction of ten (10) fold or more relative to the wild type.

FVII(a) variant E265A = target: T2, FVII(a) variant E265A (human, UniProt P08709 61-466)
T2 construct: hFVII alanine variant in cell culture supernatant
T2 sequence: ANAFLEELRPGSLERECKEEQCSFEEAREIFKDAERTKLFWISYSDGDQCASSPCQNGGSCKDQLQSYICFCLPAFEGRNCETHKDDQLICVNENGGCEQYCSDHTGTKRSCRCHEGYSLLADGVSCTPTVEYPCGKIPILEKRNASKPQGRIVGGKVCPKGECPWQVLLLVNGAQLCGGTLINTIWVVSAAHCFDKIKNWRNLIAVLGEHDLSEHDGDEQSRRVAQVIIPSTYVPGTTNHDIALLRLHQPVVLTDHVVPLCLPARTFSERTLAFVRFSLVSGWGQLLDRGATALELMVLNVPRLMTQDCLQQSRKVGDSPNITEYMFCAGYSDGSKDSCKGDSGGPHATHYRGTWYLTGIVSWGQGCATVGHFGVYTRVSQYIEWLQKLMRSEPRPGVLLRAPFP
Experimental: as §1

FVII(a) variant E394A = target: T3, FVII(a) variant E394A (human, UniProt P08709 61-466)
T3 construct: hFVII alanine variant in cell culture supernatant
T3 sequence: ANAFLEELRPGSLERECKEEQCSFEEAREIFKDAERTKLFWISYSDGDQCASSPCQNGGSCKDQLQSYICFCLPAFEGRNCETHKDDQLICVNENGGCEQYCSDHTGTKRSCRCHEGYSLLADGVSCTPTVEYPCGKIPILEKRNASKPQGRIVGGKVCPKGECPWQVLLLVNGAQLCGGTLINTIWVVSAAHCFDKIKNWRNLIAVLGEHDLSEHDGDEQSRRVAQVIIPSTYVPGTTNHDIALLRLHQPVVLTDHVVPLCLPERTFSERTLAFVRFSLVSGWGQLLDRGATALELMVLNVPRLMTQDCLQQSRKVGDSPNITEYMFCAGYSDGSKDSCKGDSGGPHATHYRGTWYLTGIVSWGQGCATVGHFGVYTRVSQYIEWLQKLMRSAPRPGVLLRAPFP
Experimental: as §1

FVII(a) variant G117A = target: T4, FVII(a) variant G117A (human, UniProt P08709 61-466)
T4 construct: hFVII alanine variant in cell culture supernatant
T4 sequence: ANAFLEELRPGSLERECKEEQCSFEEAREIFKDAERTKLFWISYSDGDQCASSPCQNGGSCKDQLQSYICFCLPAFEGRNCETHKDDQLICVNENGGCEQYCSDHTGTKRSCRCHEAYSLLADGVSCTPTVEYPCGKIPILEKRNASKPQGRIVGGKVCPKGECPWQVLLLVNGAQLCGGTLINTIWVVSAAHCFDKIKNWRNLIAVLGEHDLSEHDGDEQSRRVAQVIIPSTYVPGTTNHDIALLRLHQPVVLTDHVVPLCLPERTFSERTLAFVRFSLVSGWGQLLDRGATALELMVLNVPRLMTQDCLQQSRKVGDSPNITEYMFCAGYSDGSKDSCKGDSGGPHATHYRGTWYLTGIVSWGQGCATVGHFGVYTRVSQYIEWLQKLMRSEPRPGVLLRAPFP
Experimental: as §1

FVII(a) variant L120A = target: T5, FVII(a) variant L120A (human, UniProt P08709 61-466)
T5 construct: hFVII alanine variant in cell culture supernatant
T5 sequence: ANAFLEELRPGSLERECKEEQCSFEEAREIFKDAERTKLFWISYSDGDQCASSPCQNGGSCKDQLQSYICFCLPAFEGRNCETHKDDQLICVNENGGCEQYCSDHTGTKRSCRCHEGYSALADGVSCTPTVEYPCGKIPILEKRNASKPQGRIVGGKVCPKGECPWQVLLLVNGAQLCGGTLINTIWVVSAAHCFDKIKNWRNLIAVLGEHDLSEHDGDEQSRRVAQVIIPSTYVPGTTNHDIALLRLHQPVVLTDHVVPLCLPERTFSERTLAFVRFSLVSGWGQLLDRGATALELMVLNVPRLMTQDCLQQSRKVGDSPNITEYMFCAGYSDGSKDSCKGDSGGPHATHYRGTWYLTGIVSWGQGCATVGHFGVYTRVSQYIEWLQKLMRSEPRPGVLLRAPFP
Experimental: as §1

B1: mAb0842(OA) (antibody, human IgG4 S228P, kappa)
heavy: QVQLQESGPGLVKPSQTLSLTCTVSGYSISSDSAWSWIRQPPGKGLEWIGYIQYSGSTNYNPSLKSRVTISRDTSKNQFSLKLSSVTAADTAVYYCARSVNYYGNSFAVGYWGQGTLVTVSSASTKGPSVFPLAPCSRSTSESTAALGCLVKDYFPEPVTVSWNSGALTSGVHTFPAVLQSSGLYSLSSVVTVPSSSLGTKTYTCNVDHKPSNTKVDKRVESKYGPPCPPCPAPEFLGGPSVFLFPPKPKDTLMISRTPEVTCVVVDVSQEDPEVQFNWYVDGVEVHNAKTKPREEQFNSTYRVVSVLTVLHQDWLNGKEYKCKVSNKGLPSSIEKTISKAKGQPREPQVYTLPPSQEEMTKNQVSLSCAVKGFYPSDIAVEWESNGQPENNYKTTPPVLDSDGSFFLVSRLTVDKSRWQEGNVFSCSVMHEALHNHYTQKSLSLSLGK
light: EIVLTQSPATLSLSPGERATLSCRASQGISDYLHWYQQKPGEAPRLLIKYTSQPATGIPARFSGSGSGTDFTLTISSLEPEDFAVYYCQNGHSFPLTFGQGTKLEIKRTVAAPSVFIFPPSDEQLKSGTASVVCLLNNFYPREAKVQWKVDNALQSGNSQESVTEQDSKDSTYSLSSTLTLSKADYEKHKVYACEVTHQGLSSPVTKSFNRGEC
chain: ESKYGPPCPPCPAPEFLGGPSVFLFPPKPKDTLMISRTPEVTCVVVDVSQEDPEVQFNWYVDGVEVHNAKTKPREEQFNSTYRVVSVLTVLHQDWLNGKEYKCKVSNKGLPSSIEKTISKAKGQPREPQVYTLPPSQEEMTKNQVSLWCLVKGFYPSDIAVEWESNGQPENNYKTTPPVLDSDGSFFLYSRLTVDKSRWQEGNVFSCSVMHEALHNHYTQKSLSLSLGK
notes: also called monovalent humanized 11F2 antibody; one-armed anti-FVII(a) antibody
With B1 the “Fold diff (Variant/WT)” value (FVII(a) variant I186A) was 1.3 fold, the “Fold diff (Variant/WT)” value (FVII(a) variant E265A) was 3.2 fold and the “Fold diff (Variant/WT)” value (FVII(a) variant E394A) was 2.6 fold. For the same binder, the “Fold diff (Variant/WT)” value (FVII(a) variant G117A) was 1 fold and the “Fold diff (Variant/WT)” value (FVII(a) variant L120A) was 2 fold.
